Data from publication PMC3406945, “A smallest 6 kda metalloprotease, mini-matrilysin, in living world: a revolutionary conserved zinc-dependent proteolytic domain- helix-loop-helix catalytic zinc binding domain (ZBD)” (Journal of Biomedical Science, 2012).
Values joined by “and” are separate entries in the source; they are usually repeats but may differ in a detail not shown here. Equal values may be shown once.

Target: the molecule itself
Assay: CM-transferrin zymography; purified and refolded 6 kDa ZBD (heparin and Triton X-100 present) in sample buffer without dithiothreitol at room temperature, run on a 12.5% SDS-PAGE gel with 0.3 mg/ml CM-transferrin embedded; oligomer size read from the active bands

B1: recombinant rat matrilysin zinc-binding domain (ZBD) (domain or fragment, UniProt P50280 212-267, looked up)
chain: LFVATHELGHSLGLGHSSVPSSVMYPTYQGDHSEDFSLTKDDIAGIQKLYGKRNKL
notes: 212-267, said to correspond to human a.a; 188-247; called a 60-residue fragment; Cloned into the Nde1 and BamH1 sites of PET3a; also called 6 kDa ZBD; 6 kDa MMP-7 ZBD
How did the “stoichiometry N” value turn out when B1 was run?
Its value is 6 and 8 and 5.
